Changes are numbered by the printed parent chain.

In one assay the target is T1, Recombinant CHIKV p62-E1 (Chikungunya virus).
T1 construct: also called soluble CHIKV p62-E1; monomeric E1 protein
The experiment in a line: SPR (Biacore T100), IgG captured on anti-human IgG, p62-E1 injected.

Assay [1] concerns the target T2, Recombinant CHIKV E2 ectodomain protein (corresponding to the CHIKV-LR2006 strain) (Chikungunya virus strain LR2006).
T2 construct: extracellular domain; also called CHIKV-LR2006 E2 ectodomain; purified E2 protein
Kind of assay: ELISA on coated E2 ectodomain, mAb at 10 µg/mL. In general terms: In an ELISA, binding on a coated surface is turned into a signal by an enzyme label.

B1: human mAb 4J21 (antibody, V domains shown)
VH: QVQLVQSGSELKKPGASVKVSCKASGYSFTSYSINWVRQAPGQGPEWMGWIDTNTGNPTYAQDFAGRFVFSLDTSVTTAYLQISSLKAGDTAVYYCATYYVDLWGSYRQDYYGMDVWGHGTLVTVSS
VL: QSVVTQPPSVSGTPGQGVTISCSGGSSNIGSNPVNWYQMVPGTAPKLLLYTNNQRPSGVPDRFSGSKSGTSASLAINGLQSEDEADYYCAVWDDSLSGRWVFGGGTKLTVL
As to B1, the t1/2 in the assay with Recombinant CHIKV p62-E1 is 186 min. Moreover, the OD450 in assay [1] is 0.5 to 0.99 od.

B2: human mAb 2B4 (antibody, V domains shown)
VH: QVQLVQSGSELKKPGASVKVSCKASGYSFTSYSINWVRQAPGQGPEWMGWIDTNTGNPTYAQDFAGRFVFSLDTSVTTAYLQISSLKAGDTAVYYCATYYVDLWGSYRQDYYGMDVWGH
VL: B1 VL with V4L, V10A, G17R, L108V
For B2, the OD450 in assay [1] fell in the range of 0.5 to 0.99 od.

B3: human mAb 2C2 (antibody, V domains shown)
VH: QVQLVQSGGGLVQPGRSLTLSCAASGFTFDVYAMHWVRQAPGKGLEWVAGISWNSGSVGYADSMKGRFTISRDNAKNSLYLQINSLRAEDTALYYCAKAFWFGELSGYGMDVWGQGTLVTVSS
VL: QAVVTQPPSASGFPGQSVTISCTGTSSDVGSYNYVSWYQQHPGKAPKLIIYAVTRRPSGVPERFSGSKSGNTASLTVSGLQAEDEADYYCTSYAGNNKDVFGTGTKVTVL
Turning to B3, the t1/2 in the assay with Recombinant CHIKV p62-E1 was determined as 19 min.

B4: human mAb 5O14 (antibody, V domains shown)
VH: QVQLVQSGGRVVQAGRSLRLSCAASGFTFSMYGVHWVRQAPGKGLEWVAVIWNDGSKEYYGDSVKGRFTISRDNSRNTLYLQMNSLRVDDTAVYFCARDGIPDPERGDYGGLDYWGQGTLVTVSS
VL: QTVVTQFPSSPFASVGDGVTITCRARQSISSYVNWYQQKPGKAPKLLIYATSSLQSGVPSRFSGSGYGTDFTLTISGLQPEDFATYYCQQSYSFPRTFGQGTKVEIK
Turning to B4, in the assay with Recombinant CHIKV p62-E1, the Kd (as a rule, a measure of binding affinity in units of concentration) is 1.15 nM; the koff – broadly, the rate constant with which the complex falls apart – is 0.000911 s⁻¹; the on-rate (kon) (usually the second-order rate constant of association) is 790000 M⁻¹ s⁻¹; the t1/2 was determined as 13 min. Also, the OD450 in assay [1] is over 1 od.
